Measured values reported in patent US20200284794A1.

Experiments:
[1] = biological target: Keratin 17 recombinant protein (human) (UniProt Q04695); test: sandwich ELISA: E3 capture, 2D10-HRP detection, recombinant K17 calibrators
[2] = biological target: Keratin 17 recombinant protein (human) (UniProt Q04695); test: sandwich ELISA: E3 coated 2 ug/mL, recombinant K17 calibrator 1.4 ng/mL, detection 2D10-HRP 1 ug/mL
[3] = biological target: Keratin 17 recombinant protein (human) (UniProt Q04695); test: sandwich ELISA: E3 coated 2 ug/mL, recombinant K17 calibrator 4.1 ng/mL, detection 2D10-HRP 1 ug/mL
[4] = biological target: Keratin 17 recombinant protein (human) (UniProt Q04695); test: sandwich ELISA: E3 coated 2 ug/mL, recombinant K17 calibrator 1000 ng/mL, detection 2D10-HRP 1 ug/mL
[5] = biological target: Keratin 17 recombinant protein (human) (UniProt Q04695); test: sandwich ELISA: E3 coated 2 ug/mL, recombinant K17 calibrator 12.3 ng/mL, detection 2D10-HRP 1 ug/mL
[6] = biological target: Keratin 17 recombinant protein (human) (UniProt Q04695); test: sandwich ELISA: E3 coated 2 ug/mL, recombinant K17 calibrator 37.0 ng/mL, detection 2D10-HRP 1 ug/mL
[7] = biological target: Keratin 17 recombinant protein (human) (UniProt Q04695); test: sandwich ELISA: E3 coated 2 ug/mL, recombinant K17 calibrator 111.1 ng/mL, detection 2D10-HRP 1 ug/mL
[8] = biological target: Keratin 17 recombinant protein (human) (UniProt Q04695); test: sandwich ELISA: E3 coated 2 ug/mL, recombinant K17 calibrator 333.3 ng/mL, detection 2D10-HRP 1 ug/mL
[9] = biological target: Keratin 17 in HeLa cells (human) (UniProt Q04695); test: microfluidic cytometry (Moxi Go), methanol-fixed HeLa cells, E3 primary antibody, PE anti-mouse secondary

## mouse monoclonal-[E3] anti-human K17 antibody
[1]
  limit of sensitivity: 1 ng/mL
[2]
  OD Avg. (450 nm): 0.084 OD
  OD-1 (450 nm): 0.087 OD
  OD-2 (450 nm): 0.081 OD
[3]
  OD Avg. (450 nm): 0.141 OD
  OD-1 (450 nm): 0.142 OD
  OD-2 (450 nm): 0.14 OD
[4]
  OD Avg. (450 nm): 3.59 OD
  OD-1 (450 nm): 3.56 OD
  OD-2 (450 nm): 3.62 OD
[5]
  OD Avg. (450 nm): 0.321 OD
  OD-1 (450 nm): 0.323 OD
  OD-2 (450 nm): 0.318 OD
[6]
  OD Avg. (450 nm): 0.838 OD
  OD-1 (450 nm): 0.844 OD
  OD-2 (450 nm): 0.832 OD
[7]
  OD Avg. (450 nm): 2.38 OD
  OD-1 (450 nm): 2.47 OD
  OD-2 (450 nm): 2.29 OD
[8]
  OD Avg. (450 nm): 3.59 OD
  OD-1 (450 nm): 3.58 OD
  OD-2 (450 nm): 3.6 OD
[9]
  % K17-positive cells: 90.4%
